From paper PMC5996960 (Molecular Biology of the Cell, 2018)

Biological target: T1, His6-tagged yeast cyclin C (S. cerevisiae, UniProt P47821 1-323)
T1 sequence (looked up): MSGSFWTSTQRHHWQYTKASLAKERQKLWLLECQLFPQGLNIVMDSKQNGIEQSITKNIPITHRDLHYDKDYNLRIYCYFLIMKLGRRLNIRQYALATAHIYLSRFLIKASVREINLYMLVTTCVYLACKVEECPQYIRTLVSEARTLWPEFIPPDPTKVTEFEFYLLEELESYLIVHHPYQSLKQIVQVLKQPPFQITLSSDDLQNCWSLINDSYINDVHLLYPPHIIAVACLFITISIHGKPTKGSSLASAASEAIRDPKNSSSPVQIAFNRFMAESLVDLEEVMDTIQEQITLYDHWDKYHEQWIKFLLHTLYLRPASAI
Assay: pull-down

B1: GST-Med13^742-844 (domain or fragment, S. cerevisiae, UniProt P38931 742-844, looked up)
chain: DIPQTESPLKTVDSSIQPIESNIKMTLEDNNVTSNPSEFTPNMVNSEISNLPKDKSGIPEFTPADPNLSFESSSSLPFLLRHMPLASIPDIFITPTPVVTISE
  binding result: binds
